Like-named read-outs stand apart in the source and are kept apart here. Marks after values point to notes of the source that are not given here.
How the values were obtained:
[1] = Cytotoxicity of bortezomib versus EC0501 (FIG. 14); assay type: cell-based
RAW264.7 cells = assay type: cell-based; conditions: for RAW264.7 Cells Competable with xs folate: excess folic acid
Procedure: In Vitro Concentration-Dependent Cytotoxic Activity. Cells were heavily seeded in 24-well Falcon plates and allowed to form nearly confluent monolayers overnight. Thirty minutes prior to the addition of test article, spent medium was aspirated from all wells and replaced with fresh folate-free RPMI (FFRPMI). […] Treated cells were pulsed for 2 h at 37° C., rinsed 4 times with 0.5 mL of media, and then chased in 1 mL of fresh media up to 70 h. Spent media was aspirated from all wells and replaced with fresh media containing 5 μCi/mL ^3H-thymidine. Following a further 2 h 37° C. incubation, cells were washed 3 times with 0.5 mL of PBS and then treated with 0.5 mL of ice-cold 5% trichloroacetic acid per well. After 15 min, the trichloroacetic acid was aspirated and the cell material solubilized by the addition of 0.5 mL of 0.25 N sodium hydroxide for 15 min. Four hundred and fifty μL of each solubilized sample were transferred to scintillation vials containing 3 mL of Ecolume scintillation cocktail and then counted in a liquid scintillation counter. Final tabulated results were expressed as the percentage of ^3H-thymidine incorporation relative to untreated controls.
As shown in the figures herein, dose-dependent cytotoxicity was measurable, and in most cases, the IC50 values (concentration of drug conjugate required to reduce ^3H-thymidine incorporation into newly synthesized DNA by 50%) were in the low nanomolar range. […] The following table illustrated data for selected compounds against KB cells and against RAW264.7 cells

[2] = Cell viability, XTT, 5 h pulse/72 h chase (FIG. 16); assay type: cell-based
20S proteosome = test: Inhibition of LPS stimulated proteosome activity in RAW 264.7 cells (FIG. 18); assay type: cell-based; conditions: 5 h pulse/24 h chase, LPS 100 ng/mL
[3] = Multiple dose MTD, i.v. TIW for 1 week; conditions: mouse, in vivo, iv, Balb/c mice
Procedure: EC0436 and Comparative Example EC0305 were also administered i.v. to Balb/c mice TIW for 1 week. The resulting MTD for the multiple dose was EC0305 ([…]) and EC0436 ([…]).

[4] = Procedure: Toxicity as Measured by Weight Loss. The percentage weight change was determined in mice (5 mice/group) on selected days post-tumor inoculation (PTI), compared to controls, and graphed.
[5] = Serum binding, 30K NMWL filtration, HPLC-UV; assay type: in vitro ADME; conditions: 50 μM compound in serum, n=3
Procedure: Serum Binding. Serum binding of Folate-DAVLBH conjugates containing hydrophilic spacer linkers compared to Comparative Example EC 145 lacking a hydrophilic spacer linker 50 μM compound in serum with 30K NMWL filtration and evaluation by HPLC-UV detection (n=3).

[6] = design: AUC (DAVLBH biliary excretion): unit not given beside the values; conditions: rat, in vivo, iv
in vivo = test: in vivo; design: species or system mice; conditions: for MTD: mouse, in vivo, read-out: Single Dose MTDapp
[7] = Hepatobiliary excretion (bile clearance) in bile duct cannulated rats; conditions: 2 μmol/kg i.v. bolus
Description: Comparison of Bile Clearance (% ID) of unconjugated drug, drug conjugate lacking a hydrophilic spacer linker, and conjugates described herein.

[8] = FIG. 6B, 7B, 8B, M109 tumors, Balb/c mice, 2 μmol/kg TIW two weeks
[9] = mice, single dose, EC0234 dose limited by solubility
[10] = FIG. 3B, M109 tumors, TIW 3 μmol/kg, 3 wks

**Q.** With `CC(C)C[C@H](NC(=O)[C@H](Cc1ccccc1)NC(=O)c1cnccn1)B(O)O` [bortezomib] as the compound, how does the IC50 [1] read?
**A.** 20 nM

**Q.** For `CC(C)C[C@H](NC(=O)[C@H](Cc1ccccc1)NC(=O)c1cnc(CSSC[C@H](NC(=O)[C@H](CCC(=O)NC[C@H](O)[C@@H](O)[C@H](O)[C@H](O)CO)NC(=O)[C@H](CCC(=O)O)NC(=O)[C@H](CSSCc2cnc(C(=O)N[C@@H](Cc3ccccc3)C(=O)N[C@@H](CC(C)C)B(O)O)cn2)NC(=O)[C@H](CCC(=O)NC[C@H](O)[C@@H](O)[C@H](O)[C@H](O)CO)NC(=O)[C@H](CCC(=O)O)NC(=O)[C@H](CCC(=O)NC[C@H](O)[C@@H](O)[C@H](O)[C@H](O)CO)NC(=O)CC[C@H](NC(=O)c2ccc(NCc3cnc4nc(N)[nH]c(=O)c4n3)cc2)C(=O)O)C(=O)O)cn1)B(O)O` [EC0595], which IC50 (RAW264.7 cells) is on record?
**A.** 4 nM

**Q.** And the “RAW264.7 Cells Competable with xs folate” value (RAW264.7 cells)?
**A.** Yes

**Q.** What about the IC50 [2] of the same compound?
**A.** 13 nM

**Q.** What about the IC50 (20S proteosome) of the same compound?
**A.** ~30 nM

**Q.** For `CCCC(=O)OCN(C(=O)[C@@H](NC[C@H]1CCCCN1C)C(C)CC)[C@H](C[C@@H](OC(C)=O)c1nc(C(=O)N[C@@H](Cc2ccc(O)cc2)C[C@H](C)C(=O)NNC(=O)OCCSSC[C@H](NC(=O)[C@H](CC(=O)O)NC(=O)[C@H](CCCNC(=N)N)NC(=O)[C@H](CC(=O)O)NC(=O)CC[C@H](NC(=O)c2ccc(NCc3cnc4nc(N)[nH]c(=O)c4n3)cc2)C(=O)O)C(=O)O)cs1)C(C)C` (some centres unmarked) [EC0305, reference compound], which MTD at 1 week [3] is on record?
**A.** 6 µmol/kg

**Q.** What about the “gross toxicity (percentage body weight change)” value [4, 8] of the same compound?
**A.** no gross toxicity was observed

**Q.** For `CC[C@]1(O)C[C@H]2CN(CCc3c([nH]c4ccccc34)[C@@](C(=O)OC)(c3cc4c(cc3OC)N(C)[C@H]3[C@@](O)(C(=O)NNC(=O)OCCSSC[C@H](NC(=O)[C@H](CC(=O)O)NC(=O)[C@H](CC(=O)O)NC(=O)[C@H](CCCNC(=N)N)NC(=O)[C@H](CC(=O)O)NC(=O)CC[C@H](NC(=O)c5ccc(NCc6cnc7nc(N)[nH]c(=O)c7n6)cc5)C(=O)O)C(=O)O)[C@H](O)[C@]5(CC)C=CCN6CC[C@]43[C@@H]65)C2)C1` [EC145, reference compound], which fraction unbound at 50 μM ([5]; human, read-out: Human Serum (% Bound) (converted)) is on record?
**A.** 0.457

**Q.** And the fraction unbound at 50 μM ([5]; mouse, read-out: Mouse Serum (% Bound) (converted))?
**A.** 0.327

**Q.** What about the “gross toxicity (percentage body weight change)” value ([4]; mouse, in vivo) of the same compound?
**A.** no gross toxicity was observed

**Q.** What about the “AUC (DAVLBH biliary excretion)” value [6] of the same compound?
**A.** 1092

**Q.** What about the “percent of total dose in the bile (total DAVLBH biliary excretion)” value [6] of the same compound?
**A.** 8.7%

**Q.** With `CC[C@]1(O)C[C@H]2CN(CCc3c([nH]c4ccccc34)[C@@](C(=O)OC)(c3cc4c(cc3OC)N(C)[C@H]3[C@@](O)(C(=O)NNC(=O)OCCSSC[C@H](NC(=O)[C@@H](NC(=O)[C@H](CC(=O)O)NC(=O)[C@@H](NC(=O)CC[C@H](NC(=O)c5ccc(NCc6cnc7nc(N)[nH]c(=O)c7n6)cc5)C(=O)O)[C@@H](O)[C@H](O)[C@H](O)CO)[C@@H](O)[C@H](O)[C@H](O)CO)C(=O)O)[C@H](O)[C@]5(CC)C=CCN6CC[C@]43[C@@H]65)C2)C1` [EC0246, Bis-Saccharo-Folate Vinblastine Conjugate] as the compound, how does the mice died (in vivo; at 20 μmol/kg single dose) read?
**A.** **⅓ mice died at 20 μmol/kg.

**Q.** And the “Single Dose MTDapp” value (in vivo; [9])?
**A.** <20** μmol/kg

**Q.** And the “gross toxicity (percentage body weight change)” value [4, 10]?
**A.** no gross toxicity was observed

**Q.** Which MTD (in vivo; [9]) does the source give for `CC[C@]1(O)C[C@H]2CN(CCc3c([nH]c4ccccc34)[C@@](C(=O)OC)(c3cc4c(cc3OC)N(C)[C@H]3[C@@](O)(C(=O)NNC(=O)OCCSSC[C@H](NC(=O)[C@@H](NC(=O)[C@H](CC(=O)O)NC(=O)[C@@H](NC(=O)[C@H](CC(=O)O)NC(=O)[C@@H](NC(=O)CC[C@H](NC(=O)c5ccc(NCc6cnc7nc(N)[nH]c(=O)c7n6)cc5)C(=O)O)[C@@H](O)[C@H](O)[C@H](O)CO)[C@@H](O)[C@H](O)[C@H](O)CO)[C@@H](O)[C@H](O)[C@H](O)CO)C(=O)O)[C@H](O)[C@]5(CC)C=CCN6CC[C@]43[C@@H]65)C2)C1` [EC0263, Tris-Saccharo-Bis-Asp-Folate Vinblastine Conjugate] here?
**A.** > 20 µmol/kg

**Q.** What does the source list for `CC[C@]1(O)CC2CN(CCc3c([nH]c4ccccc34)[C@@](C(=O)OC)(c3cc4c(cc3OC)N(C)C3C45CCN4CC=C[C@](CC)(C45)[C@@H](O)[C@]3(O)C(=O)NNC(=O)OCCSSC[C@H](NC(=O)C[C@H](NC(=O)C[C@H](NC(=O)CN3CCN(CCNC(=O)C[C@H](NC(=O)CC[C@H](NC(=O)c4ccc(NCc5cnc6nc(N)[nH]c(=O)c6n5)cc4)C(=O)O)C(=O)O)CC3)C(=O)O)C(=O)O)C(=O)O)C2)C1` (some centres unmarked) [EC0429]?
**A.** gross toxicity (percentage body weight change) [4, 8]: no gross toxicity was observed; percent of total dose in the bile (total DAVLBH biliary excretion) [7]: 8.6%

**Q.** With `CC(C)C[C@H](NC(=O)[C@H](Cc1ccccc1)NC(=O)c1cnc(CSSC[C@H](NC(=O)[C@H](CCC(=O)NC[C@H](O)[C@@H](O)[C@H](O)[C@H](O)CO)NC(=O)[C@H](CCC(=O)O)NC(=O)[C@H](CCC(=O)NC[C@H](O)[C@@H](O)[C@H](O)[C@H](O)CO)NC(=O)[C@H](CCC(=O)O)NC(=O)[C@H](CCC(=O)NC[C@H](O)[C@@H](O)[C@H](O)[C@H](O)CO)NC(=O)CC[C@H](NC(=O)c2ccc(NCc3cnc4nc(N)[nH]c(=O)c4n3)cc2)C(=O)O)C(=O)O)cn1)B(O)O` [EC0525] as the compound, how does the “RAW264.7 Cells Competable with xs folate” value (RAW264.7 cells) read?
**A.** Yes

**Q.** What about the IC50 [2] of the same compound?
**A.** 46 nM

**Q.** And the IC50 (20S proteosome)?
**A.** ~30 nM

**Q.** Which MTD (in vivo; [9]) does the source give for `CC[C@]1(O)C[C@H]2CN(CCc3c([nH]c4ccccc34)[C@@](C(=O)OC)(c3cc4c(cc3OC)N(C)[C@H]3[C@@](O)(C(=O)NNC(=O)OCCSSC[C@H](NC(=O)[C@@H](NC(=O)CC[C@H](NC(=O)c5ccc(NCc6cnc7nc(N)[nH]c(=O)c7n6)cc5)C(=O)O)[C@@H](O)[C@H](O)[C@H](O)CO)C(=O)O)[C@H](O)[C@]5(CC)C=CCN6CC[C@]43[C@@H]65)C2)C1` [EC0234, Mono-Saccharo-Folate Vinblastine Conjugate] here?
**A.** 12 µmol/kg

**Q.** What about the “gross toxicity (percentage body weight change)” value [4, 10] of the same compound?
**A.** no gross toxicity was observed

— patent US20140073761A1, “CONJUGATES CONTAINING HYDROPHILIC SPACER LINKERS” (priority 2007, published 2014)
